Measurements: US20220081485A1 (BEIJING WISDOMAB BIOTECHNOLOGY, published 2022)
Changes are numbered by the printed parent chain.

Tests used:
[1] = target: T1, IL4R-mFc (human IL-4R extracellular domain fused to murine IgG2a Fc) (human (Homo sapiens)); assay: blocking ELISA: antibody gradient with IL4-his at a fixed concentration on coated IL4R-mFc; bound IL4-his detected with HRP-mouse-anti-his IgG
T1 construct: also called antigen IL4R-mFc
Protocol: 96 well plates were coated with antigen IL4R-mFc (3 μg/ml, 100 μI/well) overnight at 4° C.

[2] = target: T2, human IL-4R on cells (HEK-Blue IL-4/IL-13 cells, TF-1 cells, human PBMCs) (human, UniProt P24394 26-825); assay: cell-based or functional assay
T2 sequence (looked up): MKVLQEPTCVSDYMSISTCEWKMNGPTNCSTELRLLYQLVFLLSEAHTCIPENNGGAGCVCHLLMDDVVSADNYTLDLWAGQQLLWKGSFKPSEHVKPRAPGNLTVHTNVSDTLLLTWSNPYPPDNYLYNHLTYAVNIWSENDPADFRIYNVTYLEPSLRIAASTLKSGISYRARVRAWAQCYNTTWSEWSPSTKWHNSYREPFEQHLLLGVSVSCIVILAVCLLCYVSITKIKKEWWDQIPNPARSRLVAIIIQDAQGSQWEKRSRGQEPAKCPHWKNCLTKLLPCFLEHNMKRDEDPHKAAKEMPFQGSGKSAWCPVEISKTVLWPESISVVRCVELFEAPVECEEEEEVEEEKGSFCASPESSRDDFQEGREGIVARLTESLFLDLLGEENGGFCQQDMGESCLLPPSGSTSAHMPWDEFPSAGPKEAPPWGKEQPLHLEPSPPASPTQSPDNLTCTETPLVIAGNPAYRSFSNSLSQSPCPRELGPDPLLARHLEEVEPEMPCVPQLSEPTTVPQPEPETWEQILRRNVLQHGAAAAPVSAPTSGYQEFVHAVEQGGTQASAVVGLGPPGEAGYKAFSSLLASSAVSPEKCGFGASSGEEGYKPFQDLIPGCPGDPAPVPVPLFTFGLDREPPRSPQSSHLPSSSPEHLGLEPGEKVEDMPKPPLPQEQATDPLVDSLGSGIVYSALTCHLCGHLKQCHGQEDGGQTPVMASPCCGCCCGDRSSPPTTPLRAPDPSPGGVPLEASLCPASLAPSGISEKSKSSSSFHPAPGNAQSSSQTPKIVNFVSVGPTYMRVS

[3] = target: T2, human IL-4R on cells (HEK-Blue …); assay: cell-based or functional assay; remark: listed apart in the source
[4] = target: T3, recombinant hIL4R-his (human IL-4R extracellular domain with C-terminal His tag) (human (Homo sapiens), UniProt P24394 26-232); assay: SPR Biacore X100, antibody captured by anti-human Fc, IL4R-his as analyte, 25 C
T3 construct: The tag was added at the C-terminus; The protein was expressed in HEK293 cells; also called huIL4R
T3 sequence: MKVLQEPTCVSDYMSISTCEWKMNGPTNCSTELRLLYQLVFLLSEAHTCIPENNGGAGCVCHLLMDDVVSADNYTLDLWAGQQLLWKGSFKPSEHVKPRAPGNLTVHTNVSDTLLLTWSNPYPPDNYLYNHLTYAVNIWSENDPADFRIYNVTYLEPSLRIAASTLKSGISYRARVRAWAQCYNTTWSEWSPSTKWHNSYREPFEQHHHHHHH
Protocol: (§1) The affinity of each anti-IL4R IgG4 chimeric antibody was determined using Biacore X100. Amino coupling kits, human antibody capture kits, CM5 chips, 1× HBS-EP (pH 7.4) and all reagents used in this assay were purchased from GE Healthcare. According to the instructions in the kits, an antibody against the human Fc region was coupled to the surface of the CM5 chip using an amino coupling method, and antibody proteins were diluted to appropriate concentrations to ensure that about 100 RU of the antibodies was captured by the antibody against the human Fc. IL4R-his was set to a series of concentration gradients (100 nm, 33.3 nm, 11.1 nm, 3.7 nm, 1.23 nm) and flew through the surface of the stationary phase.

[5] = target: T2, human IL-4R on cells (HEK-Blue …); assay: cell-based or functional assay; remark: listed apart in the source
[6] = target: T2, human IL-4R on cells (HEK-Blue …); assay: cell-based or functional assay; remark: listed apart in the source
[7] = target: T4, mmIL4R-mFc (Macaca mulatta IL-4R extracellular domain fused to murine IgG2a Fc) (Macaca mulatta); assay: SPR Biacore X100, antibody captured, mmIL4R-mFc as analyte
T4 chain: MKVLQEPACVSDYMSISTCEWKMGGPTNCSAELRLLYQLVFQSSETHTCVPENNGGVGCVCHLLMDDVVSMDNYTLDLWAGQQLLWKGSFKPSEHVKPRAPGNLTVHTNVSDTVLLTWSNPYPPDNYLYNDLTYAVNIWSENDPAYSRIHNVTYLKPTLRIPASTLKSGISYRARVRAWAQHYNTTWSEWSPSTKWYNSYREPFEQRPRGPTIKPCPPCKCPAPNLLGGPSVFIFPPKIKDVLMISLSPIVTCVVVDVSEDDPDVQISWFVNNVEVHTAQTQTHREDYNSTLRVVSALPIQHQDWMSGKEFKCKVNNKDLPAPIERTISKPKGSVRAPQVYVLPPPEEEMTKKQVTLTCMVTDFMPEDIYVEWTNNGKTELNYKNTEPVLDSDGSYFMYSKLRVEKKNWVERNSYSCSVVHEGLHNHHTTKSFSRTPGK
Protocol: as §1
Similarly, anti-IL4R monoclonal antibodies were captured and mmIL4R-mFc was set to a series of concentration gradient (50 nm, 16.7 nm, 5.56 nm, […], 0.62 nm).

[8] = target: T2, human IL-4R on cells (HEK-Blue …); assay: cell-based or functional assay; remark: listed apart in the source

T1 sequence (chain, as listed by the source): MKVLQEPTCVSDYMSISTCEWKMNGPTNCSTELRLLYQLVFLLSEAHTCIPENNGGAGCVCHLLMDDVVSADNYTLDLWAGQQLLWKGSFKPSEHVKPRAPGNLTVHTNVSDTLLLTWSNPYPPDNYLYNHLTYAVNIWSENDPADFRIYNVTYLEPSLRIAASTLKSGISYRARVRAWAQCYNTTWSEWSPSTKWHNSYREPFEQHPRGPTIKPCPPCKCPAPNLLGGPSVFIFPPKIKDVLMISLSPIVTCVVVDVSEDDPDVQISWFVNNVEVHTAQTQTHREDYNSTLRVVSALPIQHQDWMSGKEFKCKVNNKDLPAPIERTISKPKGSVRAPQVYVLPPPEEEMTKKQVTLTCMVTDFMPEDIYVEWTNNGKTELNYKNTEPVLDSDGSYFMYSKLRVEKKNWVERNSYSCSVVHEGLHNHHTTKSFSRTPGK

B1: L18D7-IgG4 (antibody, V domains shown)
VH: EVQLVESGGGLVQPGGSLRLSCAVSGFTFSSYAMSWVRQAPGKGLEWVSSITGGGGGIYYADSVKGRFTISRDNSKNTVYLQMNSLRAEDTAVYYCAKDRISITIRPRYFGLDFWGQGTTVTVSS
VL: DIVMTQSPLSLPVTPGEPASISCRSSQSLLYSIGYNYLDWYLQKSGQSPQLLIYLGSNRASGVPDRFSGSGSGTDFTLKISRVEAEDVGFYYCMQSFKAPYTFGQGTKLEIKR
notes: also called S1E6 light chain mutant L18D7
B1 was tested, and the “IC50 (read off the curve)” value [1] was about 10000 pM, the “IC50 values in inhibition of CD23 expression on human PBMCs (IL-4 stimulated, flow cytometry)” value [2] was 26.8 pM and the “IC50 values in inhibition of IL-4 (SEAP, HEK-Blue IL-4/IL-13 cells)” value [3] was 48.4 pM. For the same binder, the Kd [4] was 480 pM, the koff [4] was 0.000143 s⁻¹ and the kon [4] was 297000 M⁻¹ s⁻¹. For the same binder, the “IC50 values in inhibition of IL-13 (SEAP, HEK-Blue IL-4/IL-13 cells)” value [5] was 10.2 pM, the “IC50 values in inhibition of IL-4 (IL-4 induced proliferation of TF-1 cells, CellTiter-Glo)” value [6] was 116 pM and the Kd [7] was 1670 pM. It also gave a koff [7] of 0.000984 s⁻¹ and a kon [7] of 590000 M⁻¹ s⁻¹.

B2: L28C9-IgG4 (antibody, V domains shown)
VH: B1 VH
VL: B1 VL with S28N, L29V, L30V, S32G, I33N, S57N, R59V, S61A, F97L
notes: also called S1E6 light chain mutant L28C9
B2 was tested, and the “IC50 (read off the curve)” value [1] was about 4000 pM, the “IC50 values in inhibition of CD23 expression on human PBMCs (IL-4 stimulated, flow cytometry)” value [2] was 63.5 pM and the “fold of IC50 in inhibition of IL-4 induced CD23 expression on PBMCs against L18D7” value [8] was 2.3 fold. For the same binder, the “IC50 values in inhibition of IL-4 (SEAP, HEK-Blue IL-4/IL-13 cells)” value [3] was 49.4 pM, the Kd [4] was 586 pM and the koff [4] was 0.000194 s⁻¹. The kon [4] was 331000 M⁻¹ s⁻¹, the “IC50 values in inhibition of IL-13 (SEAP, HEK-Blue IL-4/IL-13 cells)” value [5] was 12.1 pM and the “IC50 values in inhibition of IL-4 (IL-4 induced proliferation of TF-1 cells, CellTiter-Glo)” value [6] was 129 pM. The Kd [7] was 8400 pM, the koff [7] was 0.00594 s⁻¹ and the kon [7] was 706000 M⁻¹ s⁻¹.
